Experiments:
Details in all cases: both partners purified
[1] = target: SARS-CoV-2 RBD (residues 323-528) (SARS-CoV-2 WA1); assay: crystal structure
[2] = target: SARS-CoV-2 WA1 RBD (SARS-CoV-2 USA-WA1/2020 (MT246667.1)); assay: ELISA
[3] = target: SARS-CoV-2 WA1 RBD (SARS-CoV-2 USA-WA1/2020 (MT246667.1)); assay: SPR
[4] = target: T1, Yun11-CoV RBD (Bat coronavirus Cp/Yunnan2011 (Yun11), UniProt R9QTH3); assay: ELISA
T1 construct: source: Expi293F cells, transient transfection, purified (Ni-NTA, SEC)

[5] = target: T2, Rf1-CoV RBD (Bat SARS CoV Rf1/2004, UniProt Q0QDZ0); assay: ELISA
T2 construct: source: Expi293F cells, transient transfection, purified (Ni-NTA, SEC)

B1: HSW-2 Fab (Fab, V domains shown)
VH: QVQLQQSGPELVKPGASVKISCKASGYVFSTSWMSWVKQRPGEGPEWIGRIYPRDGHSSSTGKFKDKATLTADKSSNTAYIHLSSLTSEDSAVYFCARDYGYYYFDYWGQGTTLTVSS
VL: DIQMTQSPASLSASVGEAVTITCRLSENVYSFLAWYQQKQGKSPQLLVYRAKTLAEGVPSRFSGSGSGTQFSLKINSLQPEDFGTYYCQHHYGTPPTFGGGTKLEIK
B1: binds [1].

B2: HSW-2 IgG (antibody, V domains shown)
VH: B1 VH
VL: B1 VL
notes: copies: 2 + 2
B2: binds [2].

B3: C118 IgG (antibody, V domains shown)
VH: QVQLVESGGGVVQPGRSLRLSCAASGFTFSNYAMHWVRQAPGKGLEWVAVISYDGSNKYYADSVKGRFTISRDNSKNTLYLQMNSLRAEDTAIYYCASGYTGYDYFVRGDYYGLDVWGQGTTVTVSS
VL: QPVLTQSPSASASLGASVKLTCTLSSGHSSYAIAWHQQQPEKGPRYLMKLNTDGSHSKGDGIPDRFSGSSSGAERYLTISSLQSEDEADYYCQTWGTGILVFGGGTKLTVL
notes: copies: 2 + 2
For B3, the Kd [3] was 0.19 nM, the koff [3] was 3.5e-05 s⁻¹ and the kon [3] was 180000 M⁻¹ s⁻¹.

B4: HSW-1 IgG (antibody, V domains shown)
VH: QVQLQQPGAELVKPGTSMKLSCKASGYTFTSYWMHWVKQRPGQGLEWIGMIHPNSGSTKYNENFKSKATLTVDKSSSTAYMQFSSLTSEDSAVYYCVRSGSYYGTTYDYFDYWGQGTTLTVSS
VL: DIVLTQSPASLAVSLGQRATISCRASESVNIYGNSFMHWYQQKPGQPPKLLIFRASNLESGIPVRFSGSGSRTDFTLTINPVEADDVATYYCHQSNEDPFTFGSGTKLEIK
notes: copies: 2 + 2
B4: binds [2].

B5: M8a-6 IgG (antibody, V domains shown)
VH: QVQLQQPGTELVMPGASVKLSCKTSGYTFTHYWMHWVKQRPGEGLEWIGEIAPSDNYVKYNQKFKGKSTLSVDRSSSTAYMQLSSLTSEDSAVYFCARPDNSGYPVYFDYWGQGTSLTVSS
VL: DIVMTQSQKFMSTSLGDRVSISCKASQDVGTTVAWYQQKPGQSPKLLIYWASTRHTGVPDRFTGTGSGTDYTLTISSVAAEDLALYYCQQHYNTPYTFGGGTKLEIE
notes: copies: 2 + 2
With B5 the Kd [3] was 104 nM.

B6: M8a-6 Fab (Fab, V domains shown)
VH: B5 VH
VL: B5 VL
notes: source: Expi293 cells, transient transfection, purified (Ni-NTA, SEC)
B6: binds [1].

B7: M8a-3 IgG (antibody, V domains shown)
VH: QVQLQQPGAELVLPGASVKLSCKASGYTFTNYWMHWVKQRPGHGLEWIGEIDPFDTYIKINQKFKGKSTLTVDTSSSTAYMQLSSLTSEDSAVYYCARPDSSGYPVYFDYWGQGTTLTVSS
VL: DIVMTQSHKFMSTSVGDRVSITCKASQDVGTYIAWYQQKPGQSPKLLIYWASTRHTGVPDRFTGSGSGTNYTLTISSVQAEDLALYHCQQHYSTPYTFGGGTKLEIK
notes: copies: 2 + 2
With B7 the Kd [3] was 0.86 nM, the koff [3] was 0.00016 s⁻¹ and the kon [3] was 190000 M⁻¹ s⁻¹.

B8: M8a-3 IgG (antibody, V domains shown)
VH: B7 VH
VL: B7 VL
notes: copies: 2 + 2
B8: binds [4].

B9: M8a-34 IgG (antibody, V domains shown)
VH: QVQLQQPGAELVKPGASVKMSCKASGYTFITYWITWVKQRPGQGLEWIGDIYPGGGRTNYNEKFKSKATLTVDTSSSTAYMQLRSLTSEDSAVYYCARYDGNYVGYYYAMDYWGQGTSVTVSS
VL: DIVLTQSPVSLAVSLGQRATISCRASESVDFYGNSFIYWYQQKPGQAPKLLIYRASNLESGIPARFSGSGSRTDFTLTIHPVEADDVATYYCQQSIEDPRTFGGGTKLEIK
notes: copies: 2 + 2
B9: binds [4]; binds [5]; binds [2].

B10: M8a-34 Fab (Fab, V domains shown)
VH: B9 VH
VL: B9 VL
B10: binds [1].

B11: M8a-31 IgG (antibody, V domains shown)
VH: EVQLKQSVAELVRPGASVKVSCTASGFNIKNIYMHWVKQRPEQGLDWIGRIDPANGNSRYAPKFQDKATITADTSSNTAYLQLSSLTSEDTAIYYCADEGWGFANWGQGTLVTVSA
VL: DIVMTQSPSSLTVTAGEKVTMSCKSSQSLLNSGNQKNYLTWYQQKVGQPPKLLIYWASTRDPGVPDRFTGSGFGTDFTLTISSVQAEDLAVYYCQNDYSYPLTFGAGTKVELK
notes: copies: 2 + 2
B11: binds [4]; binds [5]; binds [2].

B12: M8a-28 IgG (antibody, V domains shown)
VH: QVQLQQPGAELVKPGASVKMSCKASGYNFNHYWISWVKQRPGQGLEWIGDIYPLSHFTTYNEKFTNRATLTVDTSSTTAYMQLNSLTSDDSAVFYCARWDYFDSRTFDYWGQGTTLTVSS
VL: DILLTQFPAILSVSPGERVSFSCRASQTIGTNIHWYQQRINGSPRLLIKYASESISGIPSRFSGSGSGTDFSLSINNVESEDIADYYCQQINSWPLTFGAGTKLDLK
notes: copies: 2 + 2
B12: binds [2].

From PMC9606073 (Immunity, 2022)
